Consider eleven molecules from article PMC11098746 (2024).

No end group written: not given here.

For one assay, the target named is FGFR4 ectodomain (Homo sapiens, UniProt P22455). Kind of assay: AVEXIS normalised luminescence.
Another assay addresses T1, ADP293.
T1 chain: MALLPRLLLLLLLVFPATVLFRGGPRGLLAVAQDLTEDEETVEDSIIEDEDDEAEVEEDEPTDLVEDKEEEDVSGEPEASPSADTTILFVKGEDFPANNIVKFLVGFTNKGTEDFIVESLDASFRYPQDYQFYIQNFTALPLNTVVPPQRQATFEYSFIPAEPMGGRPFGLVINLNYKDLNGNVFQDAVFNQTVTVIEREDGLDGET
Kind of assay: AVEXIS screen signal:noise (double-corrected).

The target in the next assay is T2, ADP315.
T2 chain: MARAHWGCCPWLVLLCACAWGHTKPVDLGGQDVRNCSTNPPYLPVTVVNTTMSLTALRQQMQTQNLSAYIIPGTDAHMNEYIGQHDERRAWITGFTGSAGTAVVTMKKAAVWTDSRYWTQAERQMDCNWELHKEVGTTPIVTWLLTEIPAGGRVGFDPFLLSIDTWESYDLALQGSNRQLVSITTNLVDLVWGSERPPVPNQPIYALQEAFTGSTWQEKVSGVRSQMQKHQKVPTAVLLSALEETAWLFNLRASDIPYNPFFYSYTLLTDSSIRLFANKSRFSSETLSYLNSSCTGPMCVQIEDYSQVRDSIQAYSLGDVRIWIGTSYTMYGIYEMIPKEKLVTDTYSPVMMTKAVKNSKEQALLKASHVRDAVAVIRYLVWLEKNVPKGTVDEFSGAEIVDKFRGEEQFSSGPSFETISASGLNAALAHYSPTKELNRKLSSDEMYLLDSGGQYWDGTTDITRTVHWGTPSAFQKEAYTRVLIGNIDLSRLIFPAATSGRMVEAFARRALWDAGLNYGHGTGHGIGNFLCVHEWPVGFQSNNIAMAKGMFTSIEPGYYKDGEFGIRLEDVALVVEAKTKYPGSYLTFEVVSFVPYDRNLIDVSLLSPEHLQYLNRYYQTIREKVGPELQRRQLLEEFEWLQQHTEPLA
Kind of assay: AVEXIS screen signal:noise (double-corrected).

For another assay, the target named is ADP369. Kind of assay: AVEXIS screen signal:noise (double-corrected).

B1: 22 (protein)
chain: RGNQISKCVFYDKRNKDLKQVFYVPTNDVNMYKETIRKLLSREISLLEEPLNENSDSHNMANKKNVANFEEIKKNDENNNRKRKEMEEKLKYIEKYRNYAKGVLKNVEFKCENVDDLKSKVKCNLCVYTEIVNNKHIRQGQIIQIFMNECMYGFYYYDNINQYTQNNEYNNKALKDYNSAQKLDDIYFNIAKDISEGNVNGINFFKQQSSKYHPVCYVTE
modifications: bait human Fc-tagged dimer
In turn, B1 gave a binding score with FGFR4 ectodomain of 0.879.

B2: 13 (protein)
chain: YLSSENQKKTIATVHNNARTNTLKKNNANNNNANDIFGLSPSEVPNLIDDEEEYEILEGVKNNADLTRSTNIDHPSPSSTMIDLDNIITEISKLKKKKLKKEMNNKLEQQTNQNNNAIHHNNENEINTFTQNIKTNSNELKNQDSSNSLISTNSNTMDELLLYSTNSEDNLDISFGELQLYENSDEDTSDYEYVNEDYSVNHIFSNDAEESFNILEDVENIALSSSNRYQYSPIGPYKKKHTKVFENFKMTRNYDEFLKLYNLKDSSDNQEEYYELLAGEPFKLNSYYYRDVKYENVKKYIFKEIYDNIQNIATENKIIVSKKEELFFYFIKSLLKNNFICLSYEEEENLLSESKLLLEAMISKKIQ
modifications: bait human Fc-tagged dimer
In the assay with FGFR4 ectodomain, B2 yielded a binding score of 1.16.

B3: 19 (protein)
chain: KNSDTKNNAYNDYYNTYLSKIHSFKAPFNVENLENGWNVDYSSVSTNKHVVLIPSIYNRRGVLYNKNPINSDNFIIEFNFFMERKYYKEKIDEKYYKDEKNDVHEIVYKTNSDDNLATSNKANNKEQKQIKRNGFALWILKDPFVIKEAGSNVNLVLQEEEYNIFGYKNRFNGIGILFQLKKSTNKANNKANNNNNYYYYNNYNDILNVAIILNNGDKSINSDDFTIFKNIPIDMIMINNLIHTKIICNKKEIIIAFYYPKSNNYINTLIMKNNIATENYIAFTSFNYKEDDNKNIDYNDVNNKYYENQNGYLPTFVGIKQVLTFNLNNNNNNNNNININEANINNNNYNNNNNNDNNKINYDQNYNKDISANDINAAFNDVLNNINPEKNTINQAIDVLNSITKLLQKFMNHQINSEKKLLQNINILNEKLQFVQTELKVIKKNLANQAEEPKNLQKMFSTELTGLKNLFHTHTQHHKKNIEDITNKLTKKIERNNELKILTEKAQKLEQIINK
modifications: bait human Fc-tagged dimer
In turn, B3 registered a binding score in the assay with FGFR4 ectodomain of 1.47.

B4: ADP188 (protein)
chain: QDEKSVKNICVCDFTDKLNFLPLEKTKILCELKPQYGEDIKIIANKEYEINCMNNAKVFCPLKDTFINNANIKLYSPKLHFEIKDITHKGKNAALYYLKIDEEASDIFFSCSIKPKQVSGLLEGEVRVNLKKHINEEYSIFNEEEDVHVCDFSKGNLDITPSAGFYLKNSRNVACIYRVIPNKLFLIKLPKLDIVTEKLLPSIVNCLSEFSFINFALKHVQEGDNYISFNVIFGEFKKHFNLACSLDLSDFQQEPCNLGKTANIAFIFSK
modifications: bait human Fc-tagged dimer; N-glycosylation sequons mutated in Plasmodium baits
Consider B4, for which the binding score in the assay with ADP293 was 5.5.

B5: ADP258 (protein)
chain: MGFHIQRYIAMMGRGINPKTWKKLWVDSKNKQIIHVYNDVAEFMNNQIAQVVRVYQYRY
modifications: also: human Fc-tagged dimer
In the assay with ADP315, B5 had a binding score of 6.28.

B6: ADP175 (protein)
chain: KVYQGQFYLKKNEKIHYLTKFSCNIGTCQFSIKMKLRDNIAAKLLNNYYKLNNKALKEMENDKDDGNNHNNNKYDDDNNNNNNRANKLLHMDYDNAYYVLSNQDLEYIPQRITLMQDIEQRYVNKNDKCYAFGNLKNSHMFNIPFYFKYSDLVNSKTYNLKNFINNKYSMSFNAIHSELKNNKLLQSEILNYGPILNEKNSNYAYKEIYAKTTHRVHVWFLMFDDCYDNFIRNLKLNIKTKLAYWEYLLHASKKFDISSLNDMDIKQDTSYNDFQNEETEKDIYSKENINNNNNNNMNNNMNEKKNKAIFYKSFNFDKITLLENPKRFLFLEEQFTKSEINDISFFLKYYQFKKMKNFNNMYNNLYKNGYYEQVIDYIYQNEGFHIEYEVNIFQTNKAHFSYE
modifications: bait human Fc-tagged dimer; N-glycosylation sequons mutated in Plasmodium baits
B6: the binding score with ADP315 came to 5.79.

B7: 85 (protein)
chain: VKERNNGFPKRGEGRYLFGRNQMKSQDIEKNNKELSNKMDTQDSKQYITYLYHSSICQYCSKVTSMLENNDNVEIIKFKENNKIEDFGKFTKPIVVLLKNINKENSLERSIFYEELKRKGKKVQVPALEVNNIILFESDEIIKFYKKLLQKVSNDDKSSLQNRGNIKNDQKKNNADYDNDYDNDDNNDDNDDDDDNNYNNNNDDGYDYHTS
modifications: bait human Fc-tagged dimer
With B7, in the assay with FGFR4 ectodomain, the binding score worked out at 1.22.

B8: 24 (protein)
chain: FKGNYGEANFAFFQATPASHIEEPQKTESTDAQSNIAQNEEINNAKPLQENIANNQQNSNEQQNNNEQQNNIEQQNNNIQQNNIDTSISHVPNDAIKNPIDNSNIANLDKSNDANNVIKHEENNQAKENNLETIKHTEPLTNQNTNEVKINDHNEHEKNTEENKIEEQYNNINHHSHDINKNQAINNNMNNENADKNVPHLDQSAMSNEKHINEHTTNHPIESHTGENNHDKINEPIPIEHATTPTNEPIPIEHAATPTNEPIPIEHAATPTNEPIHIEHVATPANEPTHSEHATTTTNEPIHIEHAATPTNEHIHNEHATTTTNEPTHNEHAATITHEPTHNEHTTTPTNEPIHNEHATTPTNEPIPIEHIATPANEPTHNEHATTTTNEPTHNEHTTTPTNEPIHNEHATTPTNEPIPIEHIATPANEPTHNEHATTTTNEPTHNEHATTTTNEPTHNEHATTTTNEPIHNEHATATTNEATHNEHATTTTNEPTHNEHSTTPTNEATHSENAATSTNEQHSHDQNTEVHPNDKLALVPFQGIKNPIPSNEAQPIISFPNEDDNHAQNEGSINAPSEGEHNNADNKEGPIITPLEGEQAGTAHKEDVTHKHMVGEHVPPQKTHHGPIITPVGGNHVPPQTHHAHIITPVGGEHAHGQGNNDATYVTMNTDESSSSDTKGEHSNLRSYNKNMNNNHAQRDQYDSDTLNSEGSDDAYSSMQQNFEKNGIDSFKGKGLHVSLRERIIIEIMESAKNGIDGLLKLKDSKDSGKLFMEALEKLNINMKDLKKDKNLISLEVYDKILSTMFKILTEMSFYEDSKFYETLGIKKDILNQALKDIKIKMLRKLGVSYSRLPPIIKHTEGKCAIKDIIISISSKELAQRMAIMFTKWLAPDEYGAVVDYENNVELNVLCSGAPILIQQWKYYQNMLGFEEDKDHAYLGLIDELLVMNKRYSQNKDYVETLEKIKKSKVFKHCTKIMRIGGKVSSVPFNYENVKKPSSSIIGSLGNLIKANIATYYKATAQRINSYFHYTEKKSKKSSPLKIISVCTLLHLTDMLYKCSDENSNGVMDLYNLQLNTLNMKGKMVLQYLVHLKFLTQEKKNQLKEICEPQNGLIDETLTKMLILLSTDSHELLSHELENKGFDEDYIQDEIKNINEADNNIRDKEEDDAEKMIFDDL
modifications: bait human Fc-tagged dimer
In turn, B8 had a binding score in the assay with FGFR4 ectodomain of 1.

B9: 21 (protein)
chain: SPGNDNNNVNNDGVVHVLSKNIDVKNLQGTFYEIATNAADKIFPGLACRCTKYEFSGLKRDGNLGYVLINFACARNFIFGEKKSEMTFKLILNKPLDENTATVEEFNAAIYLVQGNQQILLNGNINIIYAELNEQNEFEHLILGGQKSIEPMIIMSKYRTVLLDTYNKLINSLYLAGYEPSLLTWPFIIQTDQTFCD
modifications: bait human Fc-tagged dimer
In the assay with FGFR4 ectodomain, B9 came in with a binding score of 1.31.

B10: ADP186 (protein)
chain: YNLNNDLSKNNNFALNTYVRKDDVEDDSKNEIVDNIQKMVDDFSDDIGFVKTSMREVLLDTEASLEEVSDHVVQNIAKYSLTIEEKLNLFDGLLEEFIENNKGLISNLAKRQQKLKGDKIKKVCDLILKKLKKLENVNKLIKYKIILKYGNKDNKKEMIQTLKNEEGLSDDFKNNLANYETEQNNDDIKEIELVNFISTNYDKFVVNLEDLNKELLKDLNMALS
modifications: bait human Fc-tagged dimer; N-glycosylation sequons mutated in Plasmodium baits
For the molecule B10, in the assay with ADP369, the binding score was 5.22.

B11: 26 (protein)
chain: KCIRLNNRAIYKNKYKNNVHIGTNENIRSIEKYSNVLCNSILCKNDKISSFINQRKNVDDDDESENDDMYESTTAGSSSETDNEADEEENDASDNNNADEEQIENSNNNNADEEQNDASSNDNNDEENEEQDDVMDNDQNDKKIKHSFNLANEAKHTKEERVKEEKKLKIYDFINDKEKRLNFNGDQKDEDNEENDDKDENTLENRNIISKHTSVFPGLYFIGIGYNLLFGNPLGEADSLIDPGYRAQIYLMEWALSKEGIANDLSTLQPVNGWIRKENACSRVESITECSSISDYTKSLSAEAKVSGSYWGIASFSASTGYSSFLHEVTKRSKKTFLVKSNCVKYTIGLPPYIPWDKTTAYKNAVNELPAVFTGLDKESECPSDVYEENKAKSNCENVALWMKFFDIYGTHIIYESQLGGKITKIINVATSSIEQMKKNGVSVKAKIQAQFGFGSAGGSTDVNSANSAANDEQSYDMNEQLIVIGGNPIKDVTKEENLFEWSKTVTNHPMPINIKLTPISDSFDSDDLKESYDKAIIYYSRLYGLSPHDTMQKDDKDIIKILTNADTVTKNSAPPINAQCPHGKVVMFGFSLKQNFWDNTNALKGYNIEVCEAGSNSCTSKQGSSNKYDTSYLYMECGDQPLPFSEQVISESTSTYNTVKCPNDYSILLGFGISSSSGRINSAEYVYSTPCIPGMKSCSLNMNNDNQKSYIYVLCVDTTIWSGVNNLALVALDGAHGKVNRAKKYSDGELVGTCPLDGTVLTGFKVEFHTSSPYVQTPFEKCAKSLKACSVHGSGHAIGIQNFKSLFIYMLCKNNK
modifications: bait human Fc-tagged dimer
In the case of B11, the binding score in the assay with FGFR4 ectodomain stood at 0.914.
